Earlier results as cited in paper PMC7150914.

What was measured:
[1] = biological target: PSP94 (β-microseminoprotein) (Homo sapiens) (UniProt P08118)
[2] = biological target: α-1B glycoprotein (Homo sapiens) (UniProt P04217)
CNGA1 (Bos taurus) = CNGA1 (Bos taurus) (UniProt Q00194)
[3] = biological target: CNGA2 (Rattus norvegicus) (UniProt Q00195)
UniProt Q00195, sequence (Q00195 whole entry): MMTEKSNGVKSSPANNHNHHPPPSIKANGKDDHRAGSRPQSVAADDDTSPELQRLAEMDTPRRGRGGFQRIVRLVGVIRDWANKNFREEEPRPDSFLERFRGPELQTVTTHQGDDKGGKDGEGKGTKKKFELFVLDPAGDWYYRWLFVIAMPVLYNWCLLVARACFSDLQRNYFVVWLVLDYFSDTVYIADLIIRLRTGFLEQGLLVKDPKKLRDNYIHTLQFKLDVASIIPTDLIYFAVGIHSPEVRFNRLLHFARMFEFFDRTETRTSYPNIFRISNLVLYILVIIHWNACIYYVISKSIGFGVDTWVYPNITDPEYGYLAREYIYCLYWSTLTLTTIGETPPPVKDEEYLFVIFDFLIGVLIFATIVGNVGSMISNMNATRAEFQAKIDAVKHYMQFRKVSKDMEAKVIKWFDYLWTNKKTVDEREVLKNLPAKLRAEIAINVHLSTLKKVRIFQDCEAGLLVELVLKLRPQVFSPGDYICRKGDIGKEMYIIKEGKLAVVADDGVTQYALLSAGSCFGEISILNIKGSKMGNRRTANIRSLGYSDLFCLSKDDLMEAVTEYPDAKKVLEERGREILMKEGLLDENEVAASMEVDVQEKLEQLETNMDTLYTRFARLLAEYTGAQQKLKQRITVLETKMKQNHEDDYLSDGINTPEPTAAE

UniProt P08118, sequence (P08118 21-114): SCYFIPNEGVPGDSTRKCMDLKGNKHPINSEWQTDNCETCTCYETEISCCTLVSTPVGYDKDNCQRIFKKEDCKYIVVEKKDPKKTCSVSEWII
UniProt Q00194, sequence (Q00194 whole entry): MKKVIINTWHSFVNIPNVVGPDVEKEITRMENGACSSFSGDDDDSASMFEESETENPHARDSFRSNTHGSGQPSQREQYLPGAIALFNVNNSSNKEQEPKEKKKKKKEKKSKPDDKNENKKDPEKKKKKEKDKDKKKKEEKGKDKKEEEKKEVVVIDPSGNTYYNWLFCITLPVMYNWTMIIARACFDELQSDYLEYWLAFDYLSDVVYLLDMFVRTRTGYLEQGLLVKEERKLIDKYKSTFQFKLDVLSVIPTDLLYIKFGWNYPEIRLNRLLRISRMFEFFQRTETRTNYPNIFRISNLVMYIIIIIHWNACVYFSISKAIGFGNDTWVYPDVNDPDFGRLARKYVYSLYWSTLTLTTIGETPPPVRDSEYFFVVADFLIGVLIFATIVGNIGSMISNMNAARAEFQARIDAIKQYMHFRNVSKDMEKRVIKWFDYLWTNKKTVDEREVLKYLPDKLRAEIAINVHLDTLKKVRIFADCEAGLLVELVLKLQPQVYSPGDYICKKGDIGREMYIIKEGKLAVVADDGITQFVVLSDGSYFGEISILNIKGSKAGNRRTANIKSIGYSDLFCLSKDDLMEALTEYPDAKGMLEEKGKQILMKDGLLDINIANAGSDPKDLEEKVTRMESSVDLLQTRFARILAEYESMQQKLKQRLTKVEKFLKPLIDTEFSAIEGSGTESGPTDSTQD
UniProt P04217, sequence (P04217 22-495): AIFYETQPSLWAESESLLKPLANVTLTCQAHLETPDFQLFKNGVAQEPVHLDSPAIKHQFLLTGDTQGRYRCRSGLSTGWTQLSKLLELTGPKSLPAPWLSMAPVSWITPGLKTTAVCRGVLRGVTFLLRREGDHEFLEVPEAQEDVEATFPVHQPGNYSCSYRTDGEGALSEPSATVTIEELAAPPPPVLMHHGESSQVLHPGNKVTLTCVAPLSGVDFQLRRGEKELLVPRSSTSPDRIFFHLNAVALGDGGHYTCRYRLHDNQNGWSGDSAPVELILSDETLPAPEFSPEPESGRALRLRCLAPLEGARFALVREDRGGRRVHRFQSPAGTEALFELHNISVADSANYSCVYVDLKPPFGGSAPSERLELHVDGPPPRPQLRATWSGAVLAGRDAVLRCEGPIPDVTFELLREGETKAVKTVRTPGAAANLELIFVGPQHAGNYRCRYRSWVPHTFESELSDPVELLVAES

Row | Kd [1] | Kd [2] | Substance | Ki (CNGA1 (Bos taurus)) | Ki [3]
1 | 0.0628 nM | 2.8 nM | CRISP-3 (from UniProt P54108) | – | –
2 | – | – | Pseudechetoxin (PsTx) (from UniProt Q8AVA4) | 70 nM | 15 nM
